Data from publication PMC6239862.

Target: Q-PAS1 fragment of PpsR2 (Q-linker and PAS1 domain) fused with mRuby2 (Rhodopseudomonas palustris)
Assay: cross-linking

Substance: Q-PAS1 fragment of PpsR2 (Q-linker and PAS1 domain) fused with mRuby2 (domain or fragment)
- stoichiometry N: 2
